How the values were obtained:
[1] = target: Recombinant CypD Ser31/Ser123→Ala double mutant, P30405
[2] = target: Recombinant GST-CypD (wild type), P30405
[3] = target: Recombinant CypD Ser123→Ala mutant, P30405
[4] = target: Recombinant CypD Ser31→Ala mutant, P30405
Sequence of Recombinant CypD Ser31→Ala mutant, P30405 (P30405 whole entry, looked up, change not shown): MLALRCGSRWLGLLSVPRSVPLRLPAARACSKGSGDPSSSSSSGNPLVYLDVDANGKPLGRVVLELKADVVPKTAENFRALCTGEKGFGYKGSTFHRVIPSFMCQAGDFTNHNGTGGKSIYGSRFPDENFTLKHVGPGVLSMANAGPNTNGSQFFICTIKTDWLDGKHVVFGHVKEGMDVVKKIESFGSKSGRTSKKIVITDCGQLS

Sequence of Recombinant CypD Ser31/Ser123→Ala double mutant, P30405 (P30405 whole entry, looked up, change not shown): as above
Sequence of Recombinant CypD Ser123→Ala mutant, P30405 (P30405 whole entry, looked up, change not shown): as above
Sequence of Recombinant GST-CypD (wild type), P30405 (P30405 whole entry): as the sequence (P30405 whole entry, looked up, change not shown) above

B1: active Akt2 (protein)
chain: MNEVSVIKEGWLHKRGEYIKTWRPRYFLLKSDGSFIGYKERPEAPDQTLPPLNNFSVAECQLMKTERPRPNTFVIRCLQWTTVIERTFHVDSPDEREEWMRAIQMVANSLKQRAPGEDPMDYKCGSPSDSSTTEEMEVAVSKARAKVTMNDFDYLKLLGKGTFGKVILVREKATGRYYAMKILRKEVIIAKDEVAHTVTESRVLQNTRHPFLTALKYAFQTHDRLCFVMEYANGGELFFHLSRERVFTEERARFYGAEIVSALEYLHSRDVVYRDIKLENLMLDKDGHIKITDFGLCKEGISDGATMKTFCGTPEYLAPEVLEDNDYGRAVDWWGLGVVMYEMMCGRLPFYNQDHERLFELILMEEIRFPRTLSPEAKSLLAGLLKKDPKQRLGGGPSDAKEVMEHRFFLSINWQDVVQKKLLPPFKPQVTSEVDTRYFDDEFTAQSITITPPDRYDSLGLLELDQRTHFPQFSYSASIRE
With B1 the “kinase assay with recombinant proteins, 32P-ATP, autoradiography” value (“kinase assay with recombinant proteins” for short) [1] was “abolished Akt phosphorylation of CypD”, the “kinase assay with recombinant proteins” value [2] was “readily phosphorylated” and the “kinase assay with recombinant proteins” value [3] was “readily phosphorylated”. The “kinase assay with recombinant proteins” value [4] was “abolished Akt phosphorylation of CypD”.
